Assay results from paper PMC2114742.

Target: Turkey gizzard myosin, dephosphorylated (turkey)
Experiment: electron microscopy with streptavidin-gold labelling

percent of the filaments that contained gold particles after 24 h: > 95%
Substance: Turkey gizzard myosin biotinylated with NHS-LC-biotin (complex)
